Source: patent publication US20220259318A1 (Hoffmann-La Roche, published 2022)
Where a chain is given by its changes, count along the chain named. Several values for one entry are separate records, joined by “and”; a condition that tells them apart may be missing. Equal values may be shown once.

B1: 10B10-TCB (bispecific antibody, human IgG1, kappa, L234A L235A)
light 1: DIQLTQSPHSLSASLGETVSIECLASEGISNYLAWFHQKPGKSPQLLIYYASSLQDGVPSRFSGSGSGTQYSLKISNMQPEDEGVYYCQQGYKYPLTFGSGTKLEIKRTVAAPSVFIFPPSDRKLKSGTASVVCLLNNFYPREAKVQWKVDNALQSGNSQESVTEQDSKDSTYSLSSTLTLSKADYEKHKVYACEVTHQGLSSPVTKSFNRGEC
light 2: EVQLLESGGGLVQPGGSLRLSCAASGFTFSTYAMNWVRQAPGKGLEWVSRIRSKYNNYATYYADSVKGRFTISRDDSKNTLYLQMNSLRAEDTAVYYCVRHGNFGNSYVSWFAYWGQGTLVTVSSASVAAPSVFIFPPSDEQLKSGTASVVCLLNNFYPREAKVQWKVDNALQSGNSQESVTEQDSKDSTYSLSSTLTLSKADYEKHKVYACEVTHQGLSSPVTKSFNRGEC
heavy 1: EVQLVESGGGLVQPGRSMKLSCAASGFTFTNFYMAWVRQAPTKALEWVASINTGGGYTYYRDSVKGRFTVSRDNTRSTLYLQMDSLRSEETATYYCARHLTYYGRYYYFDYWGQGVMVTVSSASTKGPSVFPLAPSSKSTSGGTAALGCLVEDYFPEPVTVSWNSGALTSGVHTFPAVLQSSGLYSLSSVVTVPSSSLGTQTYICNVNHKPSNTKVDEKVEPKSCDKTHTCPPCPAPEAAGGPSVFLFPPKPKDTLMISRTPEVTCVVVDVSHEDPEVKFNWYVDGVEVHNAKTKPREEQYNSTYRVVSVLTVLHQDWLNGKEYKCKVSNKALGAPIEKTISKAKGQPREPQVCTLPPSRDELTKNQVSLSCAVKGFYPSDIAVEWESNGQPENNYKTTPPVLDSDGSFFLVSKLTVDKSRWQQGNVFSCSVMHEALHNHYTQKSLSLSPGK
heavy 2: not shown
B2: P1AE5709 (antibody, V domains shown)
VH: EVQLLESGGGLVQPGGSLRLSCAASGFTFSKYAMAWVRQAPGKGLEWVASISTGGVNTYYRDSVKARFTISRDNSKNTLYLQMNSLRAEDTAVYYCATHTGDYFDYWGQGTMVTVSS
VL: EIVLTQSPGTLSLSPGERATLSCRASQSVSISGINLMNWYQQKPGQQPRLLIYHASILASGIPDRFSGSGSGTDFTLTISRLEPEDFAVYYCQQTRESPLTFGQGTRLEIK
notes: Humanized 5E11 IgG; PGLALA Fc implied by the CAR-J assay; also called 5E11_VH1a + 5E11_VL2a
B3: P1AE5710 (antibody, V domains shown)
VH: B2 VH
VL: B2 VL with R49K
notes: Humanized 5E11 IgG; PGLALA Fc implied by the CAR-J assay; also called 5E11_VH1a + 5E11_VL2b
B4: P1AE5716 (antibody, V domains shown)
VH: B2 VH with V2L, S75A
VL: B2 VL
notes: Humanized 5E11 IgG; PGLALA Fc implied by the CAR-J assay; also called 5E11_VH1b + 5E11_VL2a
B5: P1AE5717 (antibody, V domains shown)
VH: B2 VH with V2L, S75A
VL: B2 VL with R49K
notes: Humanized 5E11 IgG; PGLALA Fc implied by the CAR-J assay; also called 5E11_VH1b + 5E11_VL2b
B6: P1AE5722 (antibody, V domains shown)
VH: B2 VH with R61A, A66G
VL: B2 VL
notes: Humanized 5E11 IgG; PGLALA Fc implied by the CAR-J assay; also called 5E11_VH1c + 5E11_VL2a
B7: P1AE5729 (antibody, V domains shown)
VH: B2 VH with V2L, R61A, A66G, S75A
VL: B2 VL with R49K
notes: Humanized 5E11 IgG; PGLALA Fc implied by the CAR-J assay; also called 5E11_VH1d + 5E11_VL2b
B8: P1AE5707 (antibody, V domains shown)
VH: B2 VH
VL: DIVMTQSPDSLAVSLGERATINCRASQSVSISGINLMNWYQQKPGQQPKLLIYHASILASGVPDRFSGSGSGTDFTLTISSLQAEDVAVYYCQQTRESPLTFGQGTRLEIK
notes: Humanized 5E11 IgG; PGLALA Fc implied by the CAR-J assay; also called 5E11_VH1a + 5E11_VL1a
B9: P1AE5708 (antibody, V domains shown)
VH: B2 VH
VL: B8 VL with R24K, A25S
notes: Humanized 5E11 IgG; PGLALA Fc implied by the CAR-J assay; also called 5E11_VH1a + 5E11_VL1c
B10: P1AE5713 (antibody, V domains shown)
VH: B2 VH
VL: DIQMTQSPSSLSASVGDRVTITCRASQSVSISGINLMNWYQQKPGQQPKLLIYHASILASGVPSRFSGSGSGTDFTLTISSLQPEDFATYYCQQTRESPLTFGQGTRLEIK
notes: Humanized 5E11 IgG; PGLALA Fc implied by the CAR-J assay; also called 5E11_VH1a + 5E11_VL3b
B11: P1AE5714 (antibody, V domains shown)
VH: B2 VH with V2L, S75A
VL: B8 VL
notes: Humanized 5E11 IgG; PGLALA Fc implied by the CAR-J assay; also called 5E11_VH1b + 5E11_VL1a
B12: P1AE5715 (antibody, V domains shown)
VH: B2 VH with V2L, S75A
VL: B8 VL with R24K, A25S
notes: Humanized 5E11 IgG; PGLALA Fc implied by the CAR-J assay; also called 5E11_VH1b + 5E11_VL1c
B13: P1AE5720 (antibody, V domains shown)
VH: B2 VH with R61A, A66G
VL: B8 VL
notes: Humanized 5E11 IgG; PGLALA Fc implied by the CAR-J assay; also called 5E11_VH1c + 5E11_VL1a
B14: P1AE5721 (antibody, V domains shown)
VH: B2 VH with R61A, A66G
VL: B8 VL with R24K, A25S
notes: Humanized 5E11 IgG; PGLALA Fc implied by the CAR-J assay; also called 5E11_VH1c + 5E11_VL1c
B15: P1AE5726 (antibody, V domains shown)
VH: B2 VH with V2L, R61A, A66G, S75A
VL: B8 VL
notes: Humanized 5E11 IgG; PGLALA Fc implied by the CAR-J assay; also called 5E11_VH1d + 5E11_VL1a
B16: P1AE5727 (antibody, V domains shown)
VH: B2 VH with V2L, R61A, A66G, S75A
VL: B8 VL with R24K, A25S
notes: Humanized 5E11 IgG; PGLALA Fc implied by the CAR-J assay; also called 5E11_VH1d + 5E11_VL1c
B17: P1AE5712 (antibody, V domains shown)
VH: B2 VH
VL: B10 VL with Q46K
notes: Humanized 5E11 IgG; PGLALA Fc implied by the CAR-J assay; also called 5E11_VH1a + 5E11_VL3a
B18: P1AE5719 (antibody, V domains shown)
VH: B2 VH with V2L, S75A
VL: B10 VL
notes: Humanized 5E11 IgG; PGLALA Fc implied by the CAR-J assay; also called 5E11_VH1b + 5E11_VL3b
B19: P1AE5724 (antibody, V domains shown)
VH: B2 VH with R61A, A66G
VL: B10 VL with Q46K
notes: Humanized 5E11 IgG; PGLALA Fc implied by the CAR-J assay; also called 5E11_VH1c + 5E11_VL3a
B20: P1AE5725 (antibody, V domains shown)
VH: B2 VH with R61A, A66G
VL: B10 VL
notes: Humanized 5E11 IgG; PGLALA Fc implied by the CAR-J assay; also called 5E11_VH1c + 5E11_VL3b
B21: P1AE5731 (antibody, V domains shown)
VH: B2 VH with V2L, R61A, A66G, S75A
VL: B10 VL
notes: Humanized 5E11 IgG; PGLALA Fc implied by the CAR-J assay; also called 5E11_VH1d + 5E11_VL3b

Molecular target: T1, human GPRC5D (human, UniProt Q9NZD1 1-345)
Assay: cell-based or functional assay

T1 sequence (Q9NZD1 whole entry): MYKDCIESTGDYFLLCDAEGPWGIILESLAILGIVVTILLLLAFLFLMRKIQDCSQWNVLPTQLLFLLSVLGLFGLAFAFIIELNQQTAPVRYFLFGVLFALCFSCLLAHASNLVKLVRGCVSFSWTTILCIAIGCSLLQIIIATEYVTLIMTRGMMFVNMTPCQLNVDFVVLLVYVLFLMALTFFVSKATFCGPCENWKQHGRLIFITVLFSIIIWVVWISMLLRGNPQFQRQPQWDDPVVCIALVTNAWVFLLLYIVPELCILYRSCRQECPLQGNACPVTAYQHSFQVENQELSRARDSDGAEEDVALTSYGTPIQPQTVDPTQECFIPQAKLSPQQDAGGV

Row | Binder | EC50 in vitro killing assay, AMO-1 | EC50 in vitro killing assay, EJM | EC50 in vitro killing assay, L363 | EC50 in vitro killing assay, MOLP-2 | EC50 in vitro killing assay, NCI-H929 | EC50 in vitro killing assay, OPM-2 | EC50 in vitro killing assay, RPMI
1 | B1 | 0.084 nM | 0.079 nM | 0.034 nM | 0.16 nM | 0.056 nM | 0.028 nM | 0.965 nM

Molecular target: T1, human GPRC5D
Assay: cell-based or functional assay
Remark: another data set of the same source

Row | Binder | CAR-J2 EC50 [ng/mL] (PGLALA-CAR-J activation, L363 target cells)
2 | B2 | 59.4 ng/mL
3 | B3 | 3.5 ng/mL
4 | B4 | 3.3 ng/mL
5 | B5 | 79.9 ng/mL
6 | B6 | 4.6 ng/mL
7 | B7 | 61.3 ng/mL
8 | B8 | 42.4 ng/mL
9 | B9 | 456 ng/mL
10 | B10 | 76.9 ng/mL
11 | B11 | 5.5 ng/mL
12 | B12 | 3.6 ng/mL
13 | B13 | 6.3 ng/mL
14 | B14 | 25 ng/mL
15 | B15 | 37.8 ng/mL
16 | B16 | 6.3 ng/mL
17 | B17 | 16.1 ng/mL
18 | B18 | 2.8 ng/mL
19 | B19 | 3.6 ng/mL
20 | B20 | 10.9 ng/mL
21 | B21 | 2.3 ng/mL

Molecular target: T1, human GPRC5D
Assay: cell ELISA, CHO hu GPRC5D (EC/IC50 rel)
Description: Stable transfected CHO clones expressing either human GPRCSD or cynomolgus GPRCSD or murine GPRCSD or human GPRCSA were used to analyze the binding of potential lead candidate antibodies as IgGs. In detail, 10⁴ cells (viability≥98%) were seeded into 384 well-microtiter plates (BD Poly D-Lysin, #356662, volume: 25 μl/well) using fresh culture medium. After overnight incubation at 37° C., 25 μl/well dilutions of antibodies were added (15×1:3 dilutions in 1×PBS, assay conc. starts at 30 μg/ml) to the cells for 2 hours at 4° C. After one washing step using 90 μl/well PBST (10×PBS, Roche, #11666789001+0.1% Tween 20), cells were subsequently fixed by the addition of 50 μl/well 0.05% glutaraldehyde (Sigma Cat. No: G5882 in 1×PBS) for 10 min at room temperature (RT). After three additional washing steps using 90 μl/well PBST, secondary antibodies were added for detection: for human antibodies goat anti-human Ig a chain antibody HRP conjugate (Millipore #AP502P) diluted 1:2000 in blocking buffer (1×PBS (Roche #11666789001)+2% BSA (Bovine Serum Albumin Fraction V, fatty acid free, Roche, #10735086001)+0.05% Tween 20) was used (25 μl/well). […] After incubation for 1 h at RT and three additional washing steps using 90 μl/well PBST, 25 μl/well TMB substrate was added (Roche order no. 11835033001) for 10 min and color development to final ODs was determined by measurement at 370 nm/492 nm.
For the characterization of the humanization variants of the VH and VL domains of the GPRC5D binders the ELISA protocol as described above was used (see Example 7). The data are summarized in the table 10 for the humanization variants of 5E11 and in table 11 for the humanization variants of 5F11.

Row | Binder | EC50
22 | B2 | 0.0191 µg/mL and 0.13 nM
23 | B3 | 0.0101 µg/mL and 0.07 nM
24 | B4 | 0.0151 µg/mL and 0.1 nM
25 | B5 | 0.0139 µg/mL and 0.09 nM
26 | B6 | 0.0197 µg/mL and 0.13 nM
27 | B7 | 0.0104 µg/mL and 0.07 nM
28 | B8 | 0.0142 µg/mL and 0.09 nM
29 | B9 | 0.012 µg/mL and 0.08 nM
30 | B10 | 0.0165 µg/mL and 0.11 nM
31 | B11 | 0.0129 µg/mL and 0.09 nM
32 | B12 | 0.0211 µg/mL and 0.14 nM
33 | B13 | 0.0217 µg/mL and 0.14 nM
34 | B14 | 0.0183 µg/mL and 0.12 nM
35 | B15 | 0.0076 µg/mL and 0.05 nM
36 | B16 | 0.0087 µg/mL and 0.06 nM
37 | B17 | 0.0131 µg/mL and 0.09 nM
38 | B18 | 0.0166 µg/mL and 0.11 nM
39 | B19 | 0.0053 µg/mL and 0.04 nM
40 | B20 | 0.0051 µg/mL and 0.03 nM
41 | B21 | 0.0052 µg/mL and 0.03 nM
